Test results: patent US8367612B2, “Compositions containing, methods involving, and uses of non-natural amino acids and polypeptides” (Ambrx, Inc., priority 2004, dated 2013)

Assay: Pharmacokinetic studies, single s.c. dose in rats, plasma concentration by growth hormone ELISA
Assay type: in vivo
Conditions: single-dose 1 mg/kg bolus s.c., normal male Sprague-Dawley rats; average
Procedure: Pharmacokinetic properties of PEG-modified growth hormone compounds were compared to each other and to nonPEGylated growth hormone in male Sprague-Dawley rats (261-425 g) obtained from Charles River Laboratories. Catheters were surgically installed into the carotid artery for blood collection. Following successful catheter installation, animals were assigned to treatment groups (three to six per group) prior to dosing. Animals were dosed subcutaneously with 1 mg/kg of compound in a dose volume of 0.41-0.55 ml/kg. Blood samples were collected at various time points via the indwelling catheter and into EDTA-coated microfuge tubes. Plasma was collected after centrifugation, and stored at −80° C. until analysis. Compound concentrations were measured using antibody sandwich growth hormone ELISA kits from either BioSource International (Camarillo, Calif.) or Diagnostic Systems Laboratories (Webster, Tex.). Concentrations were calculated using standards corresponding to the analog that was dosed. Pharmacokinetic parameters were estimated using the modeling program WinNonlin (Pharsight, version 4.1). Noncompartmental analysis with linear-up/log-down trapezoidal integration was used, and concentration data was uniformly weighted.
Plasma concentrations were obtained at regular intervals following a single subcutaneous dose in rats. […] Plasma samples were taken over the regular time intervals and assayed for injected compound as described. […] Concentration vs time curves were evaluated by noncompartmental analysis (Pharsight, version 4.1). Values shown are averages (+/− standard deviation). Cmax: maximum concentration; terminal t1/2: terminal half-life; AUC0→inf: area under the concentration-time curve extrapolated to infinity; MRT: mean residence time; Cl/f: apparent total, plasma clearance; Vz/f: apparent volume of distribution during terminal phase.

For “30KPEG-pAF131(his)hGH: "His-tagged hGH polypeptide comprising non-natural amino acid p-acetyl-phenylalanine covalently linked to 30 kDa PEG at each of six different positions"”, the “AUC 0->inf” value was 6,978 ng × hr/ml.
With “30KPEG-pAF35(his)hGH: "hGH polypeptides comprising p-acetyl-phenylalanine covalently-linked to 30 kDa PEG at positions 35 and 92" (position 35, His-tagged)” the “AUC 0->inf” value was 39,918 ng × hr/ml.
For “30KPEG-pAF134(his)hGH: "His-tagged hGH polypeptide comprising non-natural amino acid p-acetyl-phenylalanine covalently linked to 30 kDa PEG at each of six different positions"”, the “AUC 0->inf” value was 7,304 ng × hr/ml.
With “30KPEG-pAF143(his)hGH: "His-tagged hGH polypeptide comprising non-natural amino acid p-acetyl-phenylalanine covalently linked to 30 kDa PEG at each of six different positions"” the “AUC 0->inf” value was 17,494 ng × hr/ml.
In the case of “30KPEG-pAF145(his)hGH: "His-tagged hGH polypeptide comprising non-natural amino acid p-acetyl-phenylalanine covalently linked to 30 kDa PEG at each of six different positions"”, the “AUC 0->inf” value was 13,162 ng × hr/ml.

Point of comparison: “30KPEG-pAF145(his)hGH: "His-tagged hGH polypeptide comprising non-natural amino acid p-acetyl-phenylalanine covalently linked to 30 kDa PEG at each of six different positions"”, Cl/f 1.47 mL/min/kg. Against it:
- 30KPEG-pAF131(his)hGH: "His-tagged hGH polypeptide comprising non-natural amino acid p-acetyl-phenylalanine covalently linked to 30 kDa PEG at each of six different positions" — 1.8-fold higher, 2.68 mL/min/kg
- 30KPEG-pAF35(his)hGH: "hGH polypeptides comprising p-acetyl-phenylalanine covalently-linked to 30 kDa PEG at positions 35 and 92" (position 35, His-tagged) — 2.5-fold lower, 0.583 mL/min/kg
- 30KPEG-pAF134(his)hGH: "His-tagged hGH polypeptide comprising non-natural amino acid p-acetyl-phenylalanine covalently linked to 30 kDa PEG at each of six different positions" — 1.7-fold higher, 2.52 mL/min/kg
- 30KPEG-pAF143(his)hGH: "His-tagged hGH polypeptide comprising non-natural amino acid p-acetyl-phenylalanine covalently linked to 30 kDa PEG at each of six different positions" — within 1.5-fold, 0.983 mL/min/kg

Point of comparison: “30KPEG-pAF131(his)hGH: "His-tagged hGH polypeptide comprising non-natural amino acid p-acetyl-phenylalanine covalently linked to 30 kDa PEG at each of six different positions"”, Cmax 497 ng/mL. Against it:
- 30KPEG-pAF134(his)hGH: "His-tagged hGH polypeptide comprising non-natural amino acid p-acetyl-phenylalanine covalently linked to 30 kDa PEG at each of six different positions" — within 1.5-fold, 566 ng/mL
- 30KPEG-pAF143(his)hGH: "His-tagged hGH polypeptide comprising non-natural amino acid p-acetyl-phenylalanine covalently linked to 30 kDa PEG at each of six different positions" — 1.6-fold higher, 803 ng/mL
- 30KPEG-pAF145(his)hGH: "His-tagged hGH polypeptide comprising non-natural amino acid p-acetyl-phenylalanine covalently linked to 30 kDa PEG at each of six different positions" — within 1.5-fold, 634 ng/mL

Point of comparison: “30KPEG-pAF134(his)hGH: "His-tagged hGH polypeptide comprising non-natural amino acid p-acetyl-phenylalanine covalently linked to 30 kDa PEG at each of six different positions"”, MRT 12.15 h. Against it:
- 30KPEG-pAF131(his)hGH: "His-tagged hGH polypeptide comprising non-natural amino acid p-acetyl-phenylalanine covalently linked to 30 kDa PEG at each of six different positions" — within 1.5-fold, 14.28 h
- 30KPEG-pAF35(his)hGH: "hGH polypeptides comprising p-acetyl-phenylalanine covalently-linked to 30 kDa PEG at positions 35 and 92" (position 35, His-tagged) — 1.6-fold higher, 19.16 h
- 30KPEG-pAF143(his)hGH: "His-tagged hGH polypeptide comprising non-natural amino acid p-acetyl-phenylalanine covalently linked to 30 kDa PEG at each of six different positions" — 1.5-fold higher, 18.83 h
- 30KPEG-pAF145(his)hGH: "His-tagged hGH polypeptide comprising non-natural amino acid p-acetyl-phenylalanine covalently linked to 30 kDa PEG at each of six different positions" — within 1.5-fold, 17.82 h

Point of comparison: “30KPEG-pAF134(his)hGH: "His-tagged hGH polypeptide comprising non-natural amino acid p-acetyl-phenylalanine covalently linked to 30 kDa PEG at each of six different positions"”, “Terminal t1/2” value 4.36 h. Against it:
- 30KPEG-pAF131(his)hGH: "His-tagged hGH polypeptide comprising non-natural amino acid p-acetyl-phenylalanine covalently linked to 30 kDa PEG at each of six different positions" — within 1.5-fold, 4.41 h
- 30KPEG-pAF35(his)hGH: "hGH polypeptides comprising p-acetyl-phenylalanine covalently-linked to 30 kDa PEG at positions 35 and 92" (position 35, His-tagged) — within 1.5-fold, 4.85 h
- 30KPEG-pAF143(his)hGH: "His-tagged hGH polypeptide comprising non-natural amino acid p-acetyl-phenylalanine covalently linked to 30 kDa PEG at each of six different positions" — within 1.5-fold, 6.02 h
- 30KPEG-pAF145(his)hGH: "His-tagged hGH polypeptide comprising non-natural amino acid p-acetyl-phenylalanine covalently linked to 30 kDa PEG at each of six different positions" — within 1.5-fold, 5.87 h

In the case of “30KPEG-pAF35(his)hGH: "hGH polypeptides comprising p-acetyl-phenylalanine covalently-linked to 30 kDa PEG at positions 35 and 92" (position 35, His-tagged)”, the Cmax was 1,885 ng/ml.
